Test results: article PMC9482650, “Quantitative fragmentomics allow affinity mapping of interactomes” (Nature Communications, 2022)

T1: DLG3_1, Q92796
T1 sequence (Q92796 125-227, limits assumed, looked up): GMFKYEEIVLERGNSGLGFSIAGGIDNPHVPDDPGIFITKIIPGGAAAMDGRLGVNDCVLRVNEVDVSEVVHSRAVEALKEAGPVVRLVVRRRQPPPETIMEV

T2: LRRC7, Q96NW7
T2 sequence (Q96NW7 1440-1537, limits assumed, looked up): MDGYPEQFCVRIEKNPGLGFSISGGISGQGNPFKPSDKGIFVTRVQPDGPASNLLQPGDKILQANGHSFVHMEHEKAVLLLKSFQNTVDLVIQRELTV

T3: PARD3B_1, Q8TEW8
T3 sequence (Q8TEW8 196-299, limits assumed, looked up): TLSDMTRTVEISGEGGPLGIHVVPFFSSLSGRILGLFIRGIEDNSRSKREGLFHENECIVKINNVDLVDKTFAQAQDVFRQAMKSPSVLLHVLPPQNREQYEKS

T4: SIPA1L2, Q9P2F8
T4 sequence (Q9P2F8 945-1036, limits assumed, looked up): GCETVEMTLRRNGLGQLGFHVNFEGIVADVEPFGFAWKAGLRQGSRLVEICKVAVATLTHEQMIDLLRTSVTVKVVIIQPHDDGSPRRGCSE

T5: PCLO, Q9Y6V0
T5 sequence (Q9Y6V0 4491-4600, limits assumed, looked up): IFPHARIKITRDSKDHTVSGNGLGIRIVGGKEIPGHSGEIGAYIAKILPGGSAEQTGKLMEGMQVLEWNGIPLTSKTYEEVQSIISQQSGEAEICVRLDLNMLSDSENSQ

T6: MPDZ_10, O75970
T6 sequence (O75970 1624-1722, limits assumed, looked up): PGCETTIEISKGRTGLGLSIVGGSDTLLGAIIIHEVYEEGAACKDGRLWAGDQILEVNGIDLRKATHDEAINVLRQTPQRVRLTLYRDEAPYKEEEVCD

T7: DFNB31_3, Q9P202
T7 sequence (Q9P202 811-907, limits assumed, looked up): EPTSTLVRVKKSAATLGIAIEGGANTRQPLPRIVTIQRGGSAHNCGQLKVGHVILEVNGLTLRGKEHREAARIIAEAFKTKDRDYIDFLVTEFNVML

T8: GRIP1_4, Q9Y3R0
T8 sequence (Q9Y3R0 467-571, limits assumed, looked up): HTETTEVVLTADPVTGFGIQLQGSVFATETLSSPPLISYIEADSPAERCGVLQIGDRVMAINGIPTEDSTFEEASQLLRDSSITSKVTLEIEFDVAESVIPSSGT

T9: GRIP1_7, Q9Y3R0
T9 sequence (Q9Y3R0 999-1096, limits assumed, looked up): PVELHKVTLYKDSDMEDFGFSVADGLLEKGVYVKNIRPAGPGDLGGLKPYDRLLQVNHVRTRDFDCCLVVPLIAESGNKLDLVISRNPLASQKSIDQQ

T10: TIAM2, Q8IVF5
T10 sequence (Q8IVF5 885-986, limits assumed, looked up): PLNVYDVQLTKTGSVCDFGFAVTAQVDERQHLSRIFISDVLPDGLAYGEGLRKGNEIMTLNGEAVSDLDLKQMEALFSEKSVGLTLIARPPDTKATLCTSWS

T11: LNX2_2, Q8N448
T11 sequence (Q8N448 334-432, limits assumed, looked up): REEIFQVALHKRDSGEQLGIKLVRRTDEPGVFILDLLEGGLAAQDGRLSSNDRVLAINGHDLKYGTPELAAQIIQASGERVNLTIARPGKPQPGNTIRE


Columns and labels:
Test in all cases: holdup assay
Parameters in all cases: key: below the threshold = too weak to quantify, mostly under pKd 3.1 to 4
Conditions in all cases: plain residues with an end cap or a label only (N-terminal biotin on a linker: ado-ado)
HTRA1, Q92743 = target: HTRA1, Q92743
Sequence of HTRA1, Q92743 (Q92743 360-477): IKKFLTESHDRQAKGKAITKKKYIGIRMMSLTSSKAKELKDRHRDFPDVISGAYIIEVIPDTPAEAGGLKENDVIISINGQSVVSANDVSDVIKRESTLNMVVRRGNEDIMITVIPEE

DLG2_2, Q15700 = target: DLG2_2, Q15700
Sequence of DLG2_2, Q15700 (Q15700 189-283): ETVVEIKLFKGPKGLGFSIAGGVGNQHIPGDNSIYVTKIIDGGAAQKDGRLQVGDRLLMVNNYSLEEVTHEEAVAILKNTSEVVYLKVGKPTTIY

Inadl_1, Q8NI35 = target: Inadl_1, Q8NI35
Sequence of Inadl_1, Q8NI35 (Q8NI35 113-229): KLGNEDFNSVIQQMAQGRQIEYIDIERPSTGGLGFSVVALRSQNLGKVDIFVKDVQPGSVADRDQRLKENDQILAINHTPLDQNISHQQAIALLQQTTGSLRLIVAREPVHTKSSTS

DLG3_1, Q92796 = target: T1, DLG3_1, Q92796
MAGI2_3, Q86UL8 = target: MAGI2_3, Q86UL8
Sequence of MAGI2_3, Q86UL8 (Q86UL8 600-682): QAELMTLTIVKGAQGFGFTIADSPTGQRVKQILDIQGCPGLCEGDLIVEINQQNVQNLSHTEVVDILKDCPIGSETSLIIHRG

PDLIM1, O00151 = target: PDLIM1, O00151
Sequence of PDLIM1, O00151 (O00151 1-87): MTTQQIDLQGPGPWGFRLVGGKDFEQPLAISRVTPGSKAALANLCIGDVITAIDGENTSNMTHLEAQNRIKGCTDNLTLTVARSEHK

LRRC7, Q96NW7 = target: T2, LRRC7, Q96NW7
LAP2, Q96RT1 = target: LAP2, Q96RT1
Sequence of LAP2, Q96RT1 (Q96RT1 other isoform, or with tags, fused parts or gaps): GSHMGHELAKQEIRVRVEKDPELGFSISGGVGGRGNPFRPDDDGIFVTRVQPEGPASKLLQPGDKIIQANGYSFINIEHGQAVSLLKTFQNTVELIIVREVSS

GRID2IP_1, A4D2P6 = target: GRID2IP_1, A4D2P6
Sequence of GRID2IP_1, A4D2P6 (A4D2P6 1-87): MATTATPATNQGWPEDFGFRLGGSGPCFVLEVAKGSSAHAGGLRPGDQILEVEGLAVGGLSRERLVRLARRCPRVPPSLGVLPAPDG

PARD3B_1, Q8TEW8 = target: T3, PARD3B_1, Q8TEW8
SIPA1L2, Q9P2F8 = target: T4, SIPA1L2, Q9P2F8
NOS1, P29475 = target: NOS1, P29475
Sequence of NOS1, P29475 (P29475 9-101): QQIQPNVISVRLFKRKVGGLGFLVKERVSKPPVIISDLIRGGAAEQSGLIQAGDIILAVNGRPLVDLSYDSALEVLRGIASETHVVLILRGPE

PCLO, Q9Y6V0 = target: T5, PCLO, Q9Y6V0
TJP1_2, Q07157 = target: TJP1_2, Q07157
Sequence of TJP1_2, Q07157 (Q07157 181-274): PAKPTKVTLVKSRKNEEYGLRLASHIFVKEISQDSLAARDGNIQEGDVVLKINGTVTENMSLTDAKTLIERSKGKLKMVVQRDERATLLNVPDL

MPDZ_10, O75970 = target: T6, MPDZ_10, O75970
DFNB31_3, Q9P202 = target: T7, DFNB31_3, Q9P202
NHERF4_2, Q86UT5 = target: NHERF4_2, Q86UT5
Sequence of NHERF4_2, Q86UT5 (Q86UT5 220-308): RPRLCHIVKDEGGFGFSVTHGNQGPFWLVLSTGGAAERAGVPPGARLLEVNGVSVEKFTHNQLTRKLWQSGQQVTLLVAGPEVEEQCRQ

MAGI2_6, Q86UL8 = target: MAGI2_6, Q86UL8
Sequence of MAGI2_6, Q86UL8 (Q86UL8 1141-1229): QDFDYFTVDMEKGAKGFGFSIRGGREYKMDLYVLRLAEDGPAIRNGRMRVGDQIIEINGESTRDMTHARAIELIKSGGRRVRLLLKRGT

GRIP1_4, Q9Y3R0 = target: T8, GRIP1_4, Q9Y3R0
DLG1_1, Q12959 = target: DLG1_1, Q12959
GRIP1_7, Q9Y3R0 = target: T9, GRIP1_7, Q9Y3R0
SCRIB_3, Q14160 = target: SCRIB_3, Q14160
Sequence of SCRIB_3, Q14160 (Q14160 999-1103): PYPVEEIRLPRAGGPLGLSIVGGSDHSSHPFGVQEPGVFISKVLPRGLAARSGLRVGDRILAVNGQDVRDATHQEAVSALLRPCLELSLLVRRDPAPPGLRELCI

DLG4_2, P78352 = target: DLG4_2, P78352
Sequence of DLG4_2, P78352 (P78352 155-259): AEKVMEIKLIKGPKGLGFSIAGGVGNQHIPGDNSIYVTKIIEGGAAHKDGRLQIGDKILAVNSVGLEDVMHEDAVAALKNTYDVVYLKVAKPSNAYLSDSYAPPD

TIAM2, Q8IVF5 = target: T10, TIAM2, Q8IVF5
AHNAK1, Q09666 = target: AHNAK1, Q09666
Sequence of AHNAK1, Q09666 (Q09666 4-100): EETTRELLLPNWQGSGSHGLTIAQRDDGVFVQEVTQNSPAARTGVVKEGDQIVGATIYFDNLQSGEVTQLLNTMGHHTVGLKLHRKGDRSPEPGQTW

LNX2_2, Q8N448 = target: T11, LNX2_2, Q8N448
SCRIB_2, Q14160 = target: SCRIB_2, Q14160
Sequence of SCRIB_2, Q14160 (Q14160 857-960): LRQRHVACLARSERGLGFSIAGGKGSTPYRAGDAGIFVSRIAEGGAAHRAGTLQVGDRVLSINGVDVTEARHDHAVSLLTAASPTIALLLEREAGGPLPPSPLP

pKd (HTRA1, Q92743)	pKd (DLG2_2, Q15700)	pKd (Inadl_1, Q8NI35)	pKd (DLG3_1, Q92796)	pKd (MAGI2_3, Q86UL8)	pKd (PDLIM1, O00151)	pKd (LRRC7, Q96NW7)	pKd (LAP2, Q96RT1)	pKd (GRID2IP_1, A4D2P6)	pKd (PARD3B_1, Q8TEW8)	pKd (SIPA1L2, Q9P2F8)	pKd (NOS1, P29475)	pKd (PCLO, Q9Y6V0)	pKd (TJP1_2, Q07157)	pKd (MPDZ_10, O75970)	pKd (DFNB31_3, Q9P202)	pKd (NHERF4_2, Q86UT5)	pKd (MAGI2_6, Q86UL8)	pKd (GRIP1_4, Q9Y3R0)	pKd (DLG1_1, Q12959)	Binder	also measured
below the threshold	below the threshold	below the threshold	below the threshold	below the threshold	below the threshold	3.47	below the threshold	below the threshold	3.72	below the threshold	below the threshold	below the threshold	below the threshold	below the threshold	4.19	below the threshold	below the threshold	below the threshold	3.79	EEDTAEKDEL [HSPA5, P11021]	pKd (GRIP1_7, Q9Y3R0): below the threshold; pKd (SCRIB_3, Q14160): below the threshold; pKd (DLG4_2, P78352): 3.5; pKd (TIAM2, Q8IVF5): below the threshold; pKd (AHNAK1, Q09666): below the threshold; pKd (LNX2_2, Q8N448): below the threshold; pKd (SCRIB_2, Q14160): below the threshold
below the threshold	below the threshold	below the threshold	below the threshold	below the threshold	below the threshold	below the threshold	below the threshold	below the threshold	3.59	below the threshold	below the threshold	below the threshold	below the threshold	below the threshold	below the threshold	below the threshold	below the threshold	below the threshold	below the threshold	LSEFKAMDSF [CTNNA2, P26232]	pKd (GRIP1_7, Q9Y3R0): below the threshold; pKd (SCRIB_3, Q14160): below the threshold; pKd (DLG4_2, P78352): below the threshold; pKd (TIAM2, Q8IVF5): 4.11; pKd (AHNAK1, Q09666): below the threshold; pKd (LNX2_2, Q8N448): below the threshold; pKd (SCRIB_2, Q14160): below the threshold
4	4.62	below the threshold	3.8	below the threshold	below the threshold	below the threshold	3.61	below the threshold	below the threshold	below the threshold	below the threshold	below the threshold	3.62	below the threshold	below the threshold	below the threshold	4.26	below the threshold	4.37	PLDSQQHTEV [FAT1, Q14517]	pKd (GRIP1_7, Q9Y3R0): below the threshold; pKd (SCRIB_3, Q14160): 4.2; pKd (DLG4_2, P78352): 4.8; pKd (TIAM2, Q8IVF5): below the threshold; pKd (AHNAK1, Q09666): below the threshold; pKd (LNX2_2, Q8N448): 4.35; pKd (SCRIB_2, Q14160): 4.21
4.47	4.63	3.88	4.17	below the threshold	below the threshold	3.88	4.39	below the threshold	below the threshold	below the threshold	below the threshold	below the threshold	3.62	3.62	below the threshold	below the threshold	4.67	below the threshold	4.64	RQSILFSTEV [BCR, P11274]	pKd (GRIP1_7, Q9Y3R0): below the threshold; pKd (SCRIB_3, Q14160): 4.58; pKd (DLG4_2, P78352): 4.81; pKd (TIAM2, Q8IVF5): below the threshold; pKd (AHNAK1, Q09666): below the threshold; pKd (LNX2_2, Q8N448): 4.71; pKd (SCRIB_2, Q14160): 4.54
4.41	3.71	below the threshold	below the threshold	below the threshold	3.59	3.53	3.55	below the threshold	4.21	below the threshold	3.65	below the threshold	below the threshold	below the threshold	below the threshold	below the threshold	3.93	below the threshold	3.51	PELESKESVL [SLC1A4, P43007]	pKd (GRIP1_7, Q9Y3R0): below the threshold; pKd (SCRIB_3, Q14160): 4.7; pKd (DLG4_2, P78352): 3.91; pKd (TIAM2, Q8IVF5): below the threshold; pKd (AHNAK1, Q09666): below the threshold; pKd (LNX2_2, Q8N448): below the threshold; pKd (SCRIB_2, Q14160): below the threshold
